Source: patent US20230357348A1 (AstraZeneca / MedImmune, published 2023)
Each block holds one binder with its values, some of them ahead of it. Starred links: 1 amine or outer side, 2 acyl side, 3 side chain; linkers in the order of their positions; H or OH if unused. Non-standard residues stand in square brackets, D forms with d. Groups on a side chain read outwards from the residue. No end group written: not given here. *: point of attachment. C20 diacid = O=C(O)CCCCCCCCCCCCCCCCCCC(=O)*; C18 diacid = O=C(O)CCCCCCCCCCCCCCCCC(=O)*; γGlu = O=C(O)[C@H](CCC(=O)[*:2])N[*:1]; αMeF = C[C@](N)(Cc1ccccc1)C(=O)O; AEEA = NCCOCCOCC(=O)O; Aib = CC(C)(N)C(=O)O

Key:
[1] = biological target: human glucagon receptor (hGCGR) (human, UniProt P47871 26-477); test: cell-based or functional assay
[2] = biological target: human GLP-1 receptor (hGLP-1R) (human, UniProt P43220 24-463); test: cell-based or functional assay

Chain of human glucagon receptor (hGCGR) (P47871 26-477): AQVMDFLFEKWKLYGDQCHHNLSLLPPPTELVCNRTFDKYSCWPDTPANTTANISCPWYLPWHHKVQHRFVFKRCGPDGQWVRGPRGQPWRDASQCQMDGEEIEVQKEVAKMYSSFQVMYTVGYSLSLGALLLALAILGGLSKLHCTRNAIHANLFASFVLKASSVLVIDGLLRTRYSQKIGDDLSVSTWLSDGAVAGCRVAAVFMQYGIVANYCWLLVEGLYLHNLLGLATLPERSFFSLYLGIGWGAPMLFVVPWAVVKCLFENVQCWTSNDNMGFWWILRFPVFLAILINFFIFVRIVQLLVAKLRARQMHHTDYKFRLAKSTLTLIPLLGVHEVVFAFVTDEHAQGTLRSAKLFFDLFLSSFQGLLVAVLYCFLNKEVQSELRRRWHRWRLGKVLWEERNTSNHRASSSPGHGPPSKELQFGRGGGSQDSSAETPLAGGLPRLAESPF

- hGluc-R EC50 (pM) [1]: 63.6 pM
- hGLP-1R EC50 (pM) [2]: 102 pM
Binder: H[Aib]QGTFTSDVSK[αMeF]LDRK([AEEA-AEEA-γGlu-C20 diacid])RARDFVQWLL[Aib]E-NH2 [Peptide 471]

- hGluc-R EC50 (pM) [1]: 56.9 pM
- hGLP-1R EC50 (pM) [2]: 8.04 pM
B1: Peptide 474 (peptide)
peptide: H[Aib]QGTFTSDVSK[αMeF]LDTK([AEEA-AEEA-γGlu-C18 diacid])RARDFVQWLLA[Aib]G-NH2
modifications: N-terminus assumed
SMILES: CC(C)C[C@H](NC(=O)[C@H](CC(C)C)NC(=O)[C@H](Cc1c[nH]c2ccccc12)NC(=O)[C@H](CCC(N)=O)NC(=O)[C@@H](NC(=O)[C@H](Cc1ccccc1)NC(=O)[C@H](CC(=O)O)NC(=O)[C@H](CCCNC(=N)N)NC(=O)[C@H](C)NC(=O)[C@H](CCCNC(=N)N)NC(=O)[C@H](CCCCNC(=O)COCCOCCNC(=O)COCCOCCNC(=O)CC[C@H](NC(=O)CCCCCCCCCCCCCCCCC(=O)O)C(=O)O)NC(=O)[C@@H](NC(=O)[C@H](CC(=O)O)NC(=O)[C@H](CC(C)C)NC(=O)[C@](C)(Cc1ccccc1)NC(=O)[C@H](CCCCN)NC(=O)[C@H](CO)NC(=O)[C@@H](NC(=O)[C@H](CC(=O)O)NC(=O)[C@H](CO)NC(=O)[C@@H](NC(=O)[C@H](Cc1ccccc1)NC(=O)[C@@H](NC(=O)CNC(=O)[C@H](CCC(N)=O)NC(=O)C(C)(C)NC(=O)[C@@H](N)Cc1c[nH]cn1)[C@@H](C)O)[C@@H](C)O)C(C)C)[C@@H](C)O)C(C)C)C(=O)N[C@@H](C)C(=O)NC(C)(C)C(=O)NCC(N)=O

- hGluc-R EC50 (pM) [1]: 61.5 pM
- hGLP-1R EC50 (pM) [2]: 6.75 pM
B3: Peptide 475 (peptide)
peptide: H[Aib]QGTFTSDVSK[αMeF]LDTK([AEEA-AEEA-γGlu-C20 diacid])RARDFVQWLLA[Aib]G-NH2
modifications: N-terminus assumed
SMILES: CC(C)C[C@H](NC(=O)[C@H](CC(C)C)NC(=O)[C@H](Cc1c[nH]c2ccccc12)NC(=O)[C@H](CCC(N)=O)NC(=O)[C@@H](NC(=O)[C@H](Cc1ccccc1)NC(=O)[C@H](CC(=O)O)NC(=O)[C@H](CCCNC(=N)N)NC(=O)[C@H](C)NC(=O)[C@H](CCCNC(=N)N)NC(=O)[C@H](CCCCNC(=O)COCCOCCNC(=O)COCCOCCNC(=O)CC[C@H](NC(=O)CCCCCCCCCCCCCCCCCCC(=O)O)C(=O)O)NC(=O)[C@@H](NC(=O)[C@H](CC(=O)O)NC(=O)[C@H](CC(C)C)NC(=O)[C@](C)(Cc1ccccc1)NC(=O)[C@H](CCCCN)NC(=O)[C@H](CO)NC(=O)[C@@H](NC(=O)[C@H](CC(=O)O)NC(=O)[C@H](CO)NC(=O)[C@@H](NC(=O)[C@H](Cc1ccccc1)NC(=O)[C@@H](NC(=O)CNC(=O)[C@H](CCC(N)=O)NC(=O)C(C)(C)NC(=O)[C@@H](N)Cc1c[nH]cn1)[C@@H](C)O)[C@@H](C)O)C(C)C)[C@@H](C)O)C(C)C)C(=O)N[C@@H](C)C(=O)NC(C)(C)C(=O)NCC(N)=O

- hGluc-R EC50 (pM) [1]: 11.1 pM
- hGLP-1R EC50 (pM) [2]: 7.63 pM
B5: Peptide 472 (peptide)
peptide: H[Aib]QGTFTSDVSK[αMeF]LDKK([AEEA-AEEA-γGlu-C18 diacid])RARDFVQWLL[Aib]E-NH2
modifications: N-terminus assumed
SMILES: CC(C)C[C@H](NC(=O)[C@H](Cc1c[nH]c2ccccc12)NC(=O)[C@H](CCC(N)=O)NC(=O)[C@@H](NC(=O)[C@H](Cc1ccccc1)NC(=O)[C@H](CC(=O)O)NC(=O)[C@H](CCCNC(=N)N)NC(=O)[C@H](C)NC(=O)[C@H](CCCNC(=N)N)NC(=O)[C@H](CCCCNC(=O)COCCOCCNC(=O)COCCOCCNC(=O)CC[C@H](NC(=O)CCCCCCCCCCCCCCCCC(=O)O)C(=O)O)NC(=O)[C@H](CCCCN)NC(=O)[C@H](CC(=O)O)NC(=O)[C@H](CC(C)C)NC(=O)[C@](C)(Cc1ccccc1)NC(=O)[C@H](CCCCN)NC(=O)[C@H](CO)NC(=O)[C@@H](NC(=O)[C@H](CC(=O)O)NC(=O)[C@H](CO)NC(=O)[C@@H](NC(=O)[C@H](Cc1ccccc1)NC(=O)[C@@H](NC(=O)CNC(=O)[C@H](CCC(N)=O)NC(=O)C(C)(C)NC(=O)[C@@H](N)Cc1c[nH]cn1)[C@@H](C)O)[C@@H](C)O)C(C)C)C(C)C)C(=O)N[C@@H](CC(C)C)C(=O)NC(C)(C)C(=O)N[C@@H](CCC(=O)O)C(N)=O

- hGluc-R EC50 (pM) [1]: 14.1 pM
- hGLP-1R EC50 (pM) [2]: 11.5 pM
B6: Peptide 473 (peptide)
peptide: H[Aib]QGTFTSDVSK[αMeF]LDRK([AEEA-AEEA-γGlu-C18 diacid])RARDFVQWLL[Aib]E-NH2
modifications: N-terminus assumed
SMILES: CC(C)C[C@H](NC(=O)[C@H](Cc1c[nH]c2ccccc12)NC(=O)[C@H](CCC(N)=O)NC(=O)[C@@H](NC(=O)[C@H](Cc1ccccc1)NC(=O)[C@H](CC(=O)O)NC(=O)[C@H](CCCNC(=N)N)NC(=O)[C@H](C)NC(=O)[C@H](CCCNC(=N)N)NC(=O)[C@H](CCCCNC(=O)COCCOCCNC(=O)COCCOCCNC(=O)CC[C@H](NC(=O)CCCCCCCCCCCCCCCCC(=O)O)C(=O)O)NC(=O)[C@H](CCCNC(=N)N)NC(=O)[C@H](CC(=O)O)NC(=O)[C@H](CC(C)C)NC(=O)[C@](C)(Cc1ccccc1)NC(=O)[C@H](CCCCN)NC(=O)[C@H](CO)NC(=O)[C@@H](NC(=O)[C@H](CC(=O)O)NC(=O)[C@H](CO)NC(=O)[C@@H](NC(=O)[C@H](Cc1ccccc1)NC(=O)[C@@H](NC(=O)CNC(=O)[C@H](CCC(N)=O)NC(=O)C(C)(C)NC(=O)[C@@H](N)Cc1c[nH]cn1)[C@@H](C)O)[C@@H](C)O)C(C)C)C(C)C)C(=O)N[C@@H](CC(C)C)C(=O)NC(C)(C)C(=O)N[C@@H](CCC(=O)O)C(N)=O

The next lines start with the binder.

B2: Peptide 470 (peptide)
peptide: H[Aib]QGTFTSDVSK[αMeF]LDKK([AEEA-AEEA-γGlu-C20 diacid])RARDFVQWLL[Aib]E-NH2
modifications: N-terminus assumed
SMILES: CC(C)C[C@H](NC(=O)[C@H](Cc1c[nH]c2ccccc12)NC(=O)[C@H](CCC(N)=O)NC(=O)[C@@H](NC(=O)[C@H](Cc1ccccc1)NC(=O)[C@H](CC(=O)O)NC(=O)[C@H](CCCNC(=N)N)NC(=O)[C@H](C)NC(=O)[C@H](CCCNC(=N)N)NC(=O)[C@H](CCCCNC(=O)COCCOCCNC(=O)COCCOCCNC(=O)CC[C@H](NC(=O)CCCCCCCCCCCCCCCCCCC(=O)O)C(=O)O)NC(=O)[C@H](CCCCN)NC(=O)[C@H](CC(=O)O)NC(=O)[C@H](CC(C)C)NC(=O)[C@](C)(Cc1ccccc1)NC(=O)[C@H](CCCCN)NC(=O)[C@H](CO)NC(=O)[C@@H](NC(=O)[C@H](CC(=O)O)NC(=O)[C@H](CO)NC(=O)[C@@H](NC(=O)[C@H](Cc1ccccc1)NC(=O)[C@@H](NC(=O)CNC(=O)[C@H](CCC(N)=O)NC(=O)C(C)(C)NC(=O)[C@@H](N)Cc1c[nH]cn1)[C@@H](C)O)[C@@H](C)O)C(C)C)C(C)C)C(=O)N[C@@H](CC(C)C)C(=O)NC(C)(C)C(=O)N[C@@H](CCC(=O)O)C(N)=O
- hGluc-R EC50 (pM) [1]: 30.3 pM
- hGLP-1R EC50 (pM) [2]: 55.9 pM

B4: Peptide 466 (peptide)
peptide: H[Aib]QGTFTSDVSK[αMeF]LDTK([AEEA-AEEA-γGlu-C18 diacid])RAQDFVQWLLE[Aib]G-NH2
modifications: N-terminus assumed
SMILES: CC(C)C[C@H](NC(=O)[C@H](Cc1c[nH]c2ccccc12)NC(=O)[C@H](CCC(N)=O)NC(=O)[C@@H](NC(=O)[C@H](Cc1ccccc1)NC(=O)[C@H](CC(=O)O)NC(=O)[C@H](CCC(N)=O)NC(=O)[C@H](C)NC(=O)[C@H](CCCNC(=N)N)NC(=O)[C@H](CCCCNC(=O)COCCOCCNC(=O)COCCOCCNC(=O)CC[C@H](NC(=O)CCCCCCCCCCCCCCCCC(=O)O)C(=O)O)NC(=O)[C@@H](NC(=O)[C@H](CC(=O)O)NC(=O)[C@H](CC(C)C)NC(=O)[C@](C)(Cc1ccccc1)NC(=O)[C@H](CCCCN)NC(=O)[C@H](CO)NC(=O)[C@@H](NC(=O)[C@H](CC(=O)O)NC(=O)[C@H](CO)NC(=O)[C@@H](NC(=O)[C@H](Cc1ccccc1)NC(=O)[C@@H](NC(=O)CNC(=O)[C@H](CCC(N)=O)NC(=O)C(C)(C)NC(=O)[C@@H](N)Cc1c[nH]cn1)[C@@H](C)O)[C@@H](C)O)C(C)C)[C@@H](C)O)C(C)C)C(=O)N[C@@H](CC(C)C)C(=O)N[C@@H](CCC(=O)O)C(=O)NC(C)(C)C(=O)NCC(N)=O
- hGluc-R EC50 (pM) [1]: 131 pM
- hGLP-1R EC50 (pM) [2]: 35.6 pM

Binder: H[Aib]QGTFTSDVSK[αMeF]LDTK([AEEA-AEEA-γGlu-γGlu-C18 diacid])RAQDFVQWLLE[Aib]G-NH2 [Peptide 468]
- hGluc-R EC50 (pM) [1]: 292 pM
- hGLP-1R EC50 (pM) [2]: 67.5 pM

B7: Peptide 469 (peptide)
peptide: H[Aib]QGTFTSDVSK[αMeF]LDTK([AEEA-AEEA-γGlu-γGlu-C20 diacid])RAQDFVQWLLE[Aib]G-NH2
modifications: N-terminus assumed
SMILES: CC(C)C[C@H](NC(=O)[C@H](Cc1c[nH]c2ccccc12)NC(=O)[C@H](CCC(N)=O)NC(=O)[C@@H](NC(=O)[C@H](Cc1ccccc1)NC(=O)[C@H](CC(=O)O)NC(=O)[C@H](CCC(N)=O)NC(=O)[C@H](C)NC(=O)[C@H](CCCNC(=N)N)NC(=O)[C@H](CCCCNC(=O)COCCOCCNC(=O)COCCOCCNC(=O)CC[C@H](NC(=O)CC[C@H](NC(=O)CCCCCCCCCCCCCCCCCCC(=O)O)C(=O)O)C(=O)O)NC(=O)[C@@H](NC(=O)[C@H](CC(=O)O)NC(=O)[C@H](CC(C)C)NC(=O)[C@](C)(Cc1ccccc1)NC(=O)[C@H](CCCCN)NC(=O)[C@H](CO)NC(=O)[C@@H](NC(=O)[C@H](CC(=O)O)NC(=O)[C@H](CO)NC(=O)[C@@H](NC(=O)[C@H](Cc1ccccc1)NC(=O)[C@@H](NC(=O)CNC(=O)[C@H](CCC(N)=O)NC(=O)C(C)(C)NC(=O)[C@@H](N)Cc1c[nH]cn1)[C@@H](C)O)[C@@H](C)O)C(C)C)[C@@H](C)O)C(C)C)C(=O)N[C@@H](CC(C)C)C(=O)N[C@@H](CCC(=O)O)C(=O)NC(C)(C)C(=O)NCC(N)=O
- hGluc-R EC50 (pM) [1]: 538 pM
- hGLP-1R EC50 (pM) [2]: 255 pM
